The values that follow come from publication PMC6125598.

The assay deals with STIM1-CFP (stromal interacting molecule 1) (UniProt Q13586). Briefly: FRET or BRET; FRET between YFP-IP3R and STIM1-CFP in transfected cells, measured in TIRFM mode (less than 100 nm from the coverslip), after bradykinin stimulation (cells transfected with the human bradykinin type 2 receptor).
Chain of UniProt Q13586 (Q13586 23-685): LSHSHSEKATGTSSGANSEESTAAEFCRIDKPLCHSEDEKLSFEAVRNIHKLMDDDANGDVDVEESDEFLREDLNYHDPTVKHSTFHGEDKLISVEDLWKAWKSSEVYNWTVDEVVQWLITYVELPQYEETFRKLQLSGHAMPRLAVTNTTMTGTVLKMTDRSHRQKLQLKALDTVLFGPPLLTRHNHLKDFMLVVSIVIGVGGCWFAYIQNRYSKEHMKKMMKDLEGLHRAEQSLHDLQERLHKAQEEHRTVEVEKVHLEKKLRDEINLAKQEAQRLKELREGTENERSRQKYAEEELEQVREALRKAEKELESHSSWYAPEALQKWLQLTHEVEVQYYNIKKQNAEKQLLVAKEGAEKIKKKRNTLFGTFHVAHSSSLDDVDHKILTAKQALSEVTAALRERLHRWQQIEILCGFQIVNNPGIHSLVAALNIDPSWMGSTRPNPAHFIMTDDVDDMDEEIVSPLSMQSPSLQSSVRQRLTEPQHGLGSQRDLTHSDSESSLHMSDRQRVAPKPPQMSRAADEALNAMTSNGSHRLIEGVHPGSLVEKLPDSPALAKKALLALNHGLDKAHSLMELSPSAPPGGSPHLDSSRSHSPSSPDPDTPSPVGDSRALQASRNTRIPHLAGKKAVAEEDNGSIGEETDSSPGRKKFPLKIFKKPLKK

Substance “YFP-IP3R (inositol trisphosphate receptor type 1) (from UniProt Q14643-2 1-2743)” showed an FRET efficiency of 24%.
